According to US20170029894A1 (Novartis, published 2017):
Each block holds one molecule with its values, some of them ahead of it.

How the values were obtained:
Experiment in all cases: peptide array of 15-mer IL-13 peptides
[1] = molecular target: IL-13 peptide 1 (…) (human)
[2] = molecular target: IL-13 peptide 10 (…) (human)
[3] = molecular target: IL-13 peptide 11 (…) (human)
[4] = molecular target: IL-13 peptide 12 (…) (human)
[5] = molecular target: IL-13 peptide 13 (…) (human)
[6] = molecular target: IL-13 peptide 14 (…) (human)
[7] = molecular target: IL-13 peptide 15 (…) (human)
[8] = molecular target: IL-13 peptide 16 (…) (human)
[9] = molecular target: IL-13 peptide 17 (…) (human)
[10] = molecular target: IL-13 peptide 18 (…) (human)
[11] = molecular target: IL-13 peptide 19 (…) (human)
[12] = molecular target: IL-13 peptide 2 (…) (human)
[13] = molecular target: IL-13 peptide 20 (…) (human)
[14] = molecular target: IL-13 peptide 21 (…) (human)
[15] = molecular target: IL-13 peptide 22 (…) (human)
[16] = molecular target: IL-13 peptide 23 (…) (human)
[17] = molecular target: IL-13 peptide 24 (…) (human)
[18] = molecular target: IL-13 peptide 25 (…) (human)
[19] = molecular target: IL-13 peptide 26 (…) (human)
[20] = molecular target: IL-13 peptide 27 (…) (human)
[21] = molecular target: IL-13 peptide 28 (…) (human)
[22] = molecular target: IL-13 peptide 29 (…) (human)
[23] = molecular target: IL-13 peptide 3 (…) (human)
[24] = molecular target: IL-13 peptide 30 (…) (human)
[25] = molecular target: T1, IL-13 peptide 6 (EELVNITQNQKAPLC) (human)
T1 peptide: EELVNITQNQKAPLC
Description: (§1) The sequence of IL-13 was probed at the peptide level to identify the binding site with ANTIBODY 01951/G12. Thirty four 15-mer peptides were synthesized in order to scan the entire sequence with 12 residue overlap starting from the N-terminus. The synthesis of the peptides, preparation of the peptide-array slides, incubation with antibodies and data analysis where done as described by Maksimov et al. (PLoS ONE 7(3): e34212).
(§2) The binding signal intensity (light unit) observed is reported for each peptide, in column 1 against a control unrelated human antibody and in column 2 against ANTIBODY 01951/G12. Signals above 10000 Light Units are considered as being significant. 2 overlapping peptides in the set of the 34 peptides produced a signal above that threshold, peptide 22 ([…]) (SEQ ID NO: 31) and peptide 23 ([…]) (SEQ ID NO: 32). The overlapping sequence between both peptides is […] (SEQ ID NO: 33).

[26] = molecular target: T2, IL-13 peptide 7 (VNITQNQKAPLCNGS) (human)
T2 peptide: VNITQNQKAPLCNGS
Description: as §1, §2

[27] = molecular target: T3, IL-13 peptide 8 (TQNQKAPLCNGSMVW) (human)
T3 peptide: TQNQKAPLCNGSMVW
Description: as §1, §2

[28] = molecular target: T4, IL-13 peptide 9 (QKAPLCNGSMVWSIN) (human)
T4 peptide: QKAPLCNGSMVWSIN
Description: as §1, §2

[29] = molecular target: T5, IL-13 peptide 10 (PLCNGSMVWSINLTA) (human)
T5 peptide: PLCNGSMVWSINLTA
Description: as §1, §2

[30] = molecular target: T6, IL-13 peptide 11 (NGSMVWSINLTAGMY) (human)
T6 peptide: NGSMVWSINLTAGMY
Description: as §1, §2

[31] = molecular target: T7, IL-13 peptide 12 (MVWSINLTAGMYCAA) (human)
T7 peptide: MVWSINLTAGMYCAA
Description: as §1, §2

[32] = molecular target: T8, IL-13 peptide 13 (SINLTAGMYCAALES) (human)
T8 peptide: SINLTAGMYCAALES
Description: as §1, §2

[33] = molecular target: T9, IL-13 peptide 14 (LTAGMYCAALESLIN) (human)
T9 peptide: LTAGMYCAALESLIN
Description: as §1, §2

[34] = molecular target: T10, IL-13 peptide 15 (GMYCAALESLINVSG) (human)
T10 peptide: GMYCAALESLINVSG
Description: as §1, §2

[35] = molecular target: T11, IL-13 peptide 16 (CAALESLINVSGCSA) (human)
T11 peptide: CAALESLINVSGCSA
Description: as §1, §2

[36] = molecular target: T12, IL-13 peptide 17 (LESLINVSGCSAIEK) (human)
T12 peptide: LESLINVSGCSAIEK
Description: as §1, §2

[37] = molecular target: T13, IL-13 peptide 18 (LINVSGCSAIEKTQR) (human)
T13 peptide: LINVSGCSAIEKTQR
Description: as §1, §2

[38] = molecular target: T14, IL-13 peptide 19 (VSGCSAIEKTQRMLS) (human)
T14 peptide: VSGCSAIEKTQRMLS
Description: as §1, §2

[39] = molecular target: T15, IL-13 peptide 20 (CSAIEKTQRMLSGFC) (human)
T15 peptide: CSAIEKTQRMLSGFC
Description: as §1, §2

[40] = molecular target: T16, IL-13 peptide 21 (IEKTQRMLSGFCPHK) (human)
T16 peptide: IEKTQRMLSGFCPHK
Description: as §1, §2

[41] = molecular target: T17, IL-13 peptide 22 (TQRMLSGFCPHKVSA) (human)
T17 peptide: TQRMLSGFCPHKVSA
Description: as §1, §2

[42] = molecular target: T18, IL-13 peptide 23 (MLSGFCPHKVSAGQF) (human)
T18 peptide: MLSGFCPHKVSAGQF
Description: as §1, §2

[43] = molecular target: T19, IL-13 peptide 25 (PHKVSAGQFSSLHVR) (human)
T19 peptide: PHKVSAGQFSSLHVR
Description: as §1, §2

[44] = molecular target: T20, IL-13 peptide 26 (VSAGQFSSLHVRDTK) (human)
T20 peptide: VSAGQFSSLHVRDTK
Description: as §1, §2

[45] = molecular target: T21, IL-13 peptide 27 (GQFSSLHVRDTKIEV) (human)
T21 peptide: GQFSSLHVRDTKIEV
Description: as §1, §2

[46] = molecular target: T22, IL-13 peptide 28 (SSLHVRDTKIEVAQF) (human)
T22 peptide: SSLHVRDTKIEVAQF
Description: as §1, §2

[47] = molecular target: T23, IL-13 peptide 29 (HVRDTKIEVAQFVKD) (human)
T23 peptide: HVRDTKIEVAQFVKD
Description: as §1, §2

[48] = molecular target: T24, IL-13 peptide 30 (DTKIEVAQFVKDLLL) (human)
T24 peptide: DTKIEVAQFVKDLLL
Description: as §1, §2

[49] = molecular target: T25, IL-13 peptide 31 (IEVAQFVKDLLLHLK) (human)
T25 peptide: IEVAQFVKDLLLHLK
Description: as §1, §2

[50] = molecular target: T26, IL-13 peptide 32 (AQFVKDLLLHLKKLF) (human)
T26 peptide: AQFVKDLLLHLKKLF
Description: as §1, §2

[51] = molecular target: T27, IL-13 peptide 33 (VKDLLLHLKKLFREG) (human)
T27 peptide: VKDLLLHLKKLFREG
Description: as §1, §2

[52] = molecular target: T28, IL-13 peptide 34 (LLLHLKKLFREGRFN) (human)
T28 peptide: LLLHLKKLFREGRFN
Description: as §1, §2

[53] = molecular target: T29, IL-13 peptide 1 (SPGPVPPSTALRELI) (human)
T29 peptide: SPGPVPPSTALRELI
Description: as §1, §2

[54] = molecular target: T30, IL-13 peptide 2 (PVPPSTALRELIEEL) (human)
T30 peptide: PVPPSTALRELIEEL
Description: as §1, §2

[55] = molecular target: T31, IL-13 peptide 3 (PSTALRELIEELVNI) (human)
T31 peptide: PSTALRELIEELVNI
Description: as §1, §2

[56] = molecular target: T32, IL-13 peptide 4 (ALRELIEELVNITQN) (human)
T32 peptide: ALRELIEELVNITQN
Description: as §1, §2

[57] = molecular target: T33, IL-13 peptide 5 (ELIEELVNITQNQKA) (human)
T33 peptide: ELIEELVNITQNQKA
Description: as §1, §2

- Corrected Mean signal intensity (Light Unit) [1]: 44.3 Light Unit
- Corrected Mean signal intensity (Light Unit) [2]: -6.5 Light Unit
- Corrected Mean signal intensity (Light Unit) [3]: -5 Light Unit
- Corrected Mean signal intensity (Light Unit) [4]: 19 Light Unit
- Corrected Mean signal intensity (Light Unit) [5]: -1.5 Light Unit
- Corrected Mean signal intensity (Light Unit) [6]: 1 Light Unit
- Corrected Mean signal intensity (Light Unit) [7]: 1 Light Unit
- Corrected Mean signal intensity (Light Unit) [8]: 1 Light Unit
- Corrected Mean signal intensity (Light Unit) [9]: 18.7 Light Unit
- Corrected Mean signal intensity (Light Unit) [10]: 12.5 Light Unit
- Corrected Mean signal intensity (Light Unit) [11]: 15 Light Unit
- Corrected Mean signal intensity (Light Unit) [12]: -9 Light Unit
- Corrected Mean signal intensity (Light Unit) [13]: 26 Light Unit
- Corrected Mean signal intensity (Light Unit) [14]: 101 Light Unit
- Corrected Mean signal intensity (Light Unit) [15]: 123 Light Unit
- Corrected Mean signal intensity (Light Unit) [16]: 23 Light Unit
- Corrected Mean signal intensity (Light Unit) [17]: 3.3 Light Unit
- Corrected Mean signal intensity (Light Unit) [18]: -24.7 Light Unit
- Corrected Mean signal intensity (Light Unit) [19]: 3.7 Light Unit
- Corrected Mean signal intensity (Light Unit) [20]: -10.5 Light Unit
- Corrected Mean signal intensity (Light Unit) [21]: -6 Light Unit
- Corrected Mean signal intensity (Light Unit) [22]: -17 Light Unit
- Corrected Mean signal intensity (Light Unit) [23]: -7.3 Light Unit
- Corrected Mean signal intensity (Light Unit) [24]: -13 Light Unit
Molecule: control unrelated human antibody

- Corrected Mean signal intensity (Light Unit) [17]: 493 Light Unit
- Corrected Mean signal intensity (Light Unit) [25]: 1 Light Unit
- binding result [25]: no binding (tested: 10000 Light Units)
- Corrected Mean signal intensity (Light Unit) [26]: -405 Light Unit
- Corrected Mean signal intensity (Light Unit) [27]: -350 Light Unit
- Corrected Mean signal intensity (Light Unit) [28]: -518 Light Unit
- Corrected Mean signal intensity (Light Unit) [29]: -982 Light Unit
- Corrected Mean signal intensity (Light Unit) [30]: -132 Light Unit
- Corrected Mean signal intensity (Light Unit) [31]: 56.5 Light Unit
- binding result [31]: no binding (tested: 10000 Light Units)
- Corrected Mean signal intensity (Light Unit) [32]: -757 Light Unit
- Corrected Mean signal intensity (Light Unit) [33]: -99.7 Light Unit
- Corrected Mean signal intensity (Light Unit) [34]: -987 Light Unit
- Corrected Mean signal intensity (Light Unit) [35]: -587 Light Unit
- Corrected Mean signal intensity (Light Unit) [36]: -340 Light Unit
- Corrected Mean signal intensity (Light Unit) [37]: -539 Light Unit
- Corrected Mean signal intensity (Light Unit) [38]: -830 Light Unit
- Corrected Mean signal intensity (Light Unit) [39]: -721 Light Unit
- Corrected Mean signal intensity (Light Unit) [40]: 2210 Light Unit
- Corrected Mean signal intensity (Light Unit) [41]: 38600 Light Unit
- Corrected Mean signal intensity (Light Unit) [42]: 48100 Light Unit
- Corrected Mean signal intensity (Light Unit) [43]: -386 Light Unit
- Corrected Mean signal intensity (Light Unit) [44]: -778 Light Unit
- Corrected Mean signal intensity (Light Unit) [45]: -291 Light Unit
- Corrected Mean signal intensity (Light Unit) [46]: -170 Light Unit
- Corrected Mean signal intensity (Light Unit) [47]: -734 Light Unit
- Corrected Mean signal intensity (Light Unit) [48]: -438 Light Unit
- Corrected Mean signal intensity (Light Unit) [49]: -810 Light Unit
- Corrected Mean signal intensity (Light Unit) [50]: -746 Light Unit
- Corrected Mean signal intensity (Light Unit) [51]: -203 Light Unit
- Corrected Mean signal intensity (Light Unit) [52]: 7150 Light Unit
- Corrected Mean signal intensity (Light Unit) [53]: -1070 Light Unit
- Corrected Mean signal intensity (Light Unit) [54]: -1130 Light Unit
- Corrected Mean signal intensity (Light Unit) [55]: -210 Light Unit
- Corrected Mean signal intensity (Light Unit) [56]: -207 Light Unit
- Corrected Mean signal intensity (Light Unit) [57]: -131 Light Unit
B1: ANTIBODY 01951/G12 (antibody, human IgG1, kappa, V domains shown)
VH: EVQLVESGGGVVQPGRSLRLSCAASGFTFSSYGMHWVRQAPGKGLEWVAIIWYDGSNKYYADSVKGRFTISRDNSKNTLYLQMNSLRAEDTAVYYCARLWFGDLDAFDIWGQGTMVTVSS
VL: EIVLTQSPATLSLSPGERAILSCRAGQSVSSYLVWYQQKPGQAPRLLIYDASNRATGIPARFSGSGSGTDFTLTISSLEPEDFAVYYCQQRSSWPPVYTFGQGTKLEIKR
notes: also called target antibody
